In general, IC50 refers to the concentration that gives 50% inhibition. What is called EC50 is the concentration giving half of the maximal effect. What is called Kd is the concentration at which binding is half-saturated. Usually koff stands for a measure of how fast the partners let go of each other. By kon is commonly meant the rate constant with which the complex forms.

The results in this text go back to US20250340646A1 (ELPIS BIOPHARMACEUTICALS, published 2025).

In test [1] the target is PD-L1 on PD-L1 aAPC/CHOK1 cells (Promega J1250). Briefly: cell-based or functional assay.
Test [2] has the same target. Nature of the test: cell-based or functional assay. The source holds these as a separate data set.
For test [3] the target is unchanged. Nature of the test: cell-based or functional assay. This is another data set of the same source.
Test [4] has as its target T1, PD-L1 biotinylated (PD-1/PD-L1 TR-FRET assay kit, BPS 72038) (Homo sapiens (Human), UniProt Q9NZQ7 19-238, biotinylated; site not stated).
T1 construct: Kit reagent
Briefly: HTRF competition, competitor PD-1-Eu. The procedure: (§1) Briefly, 1× Immuno buffer 1 was made. […] For each well in 384-well plate, serial diluted scFvs and regents were added according to manufacturer's recommended volume. Samples were incubated at room temperature for 1.5 hours then the fluorescent intensity was read with Biotek Neo2 plate reader using manufacture's instrument setting for the assay.
(In general: Time-resolved FRET reads energy transfer from a long-lived donor to a nearby acceptor.)

In test [5] the target is T1, PD-L1 biotinylated (PD-1/PD-L1 TR-FRET …). Nature of the test: HTRF competition, competitor PD-1-Eu. As for the experimental part: as §1
The source holds these as a separate data set.

The target is the same in test [6]. Nature of the test: HTRF competition, competitor PD-1-Eu. As for the experimental part: as §1
The source holds these as a separate data set.

In test [7] the target is T2, human PD-L1-HIS tagged recombinant protein (human, UniProt Q9NZQ7 19-238).
T2 construct: also called hPD-L1-HIS; PD-L1 HIS tagged protein
Nature of the test: ELISA, coated PD-L1-HIS, anti-hFc HRP. The procedure:
The plate was incubated overnight at 4° C. followed by blocking with 80 μL of superblock per well for 1 hour. […] In between each step, the plate was washed 3 times with 1×PBST in a plate washer. The plate was then developed with 20 μL of TMB substrate for 5 min and stopped by adding 20 μL of 2N sulfuric acid. The plate was read at OD450 nm Biotek plate reader and then plotted in Prism 8.1 software.

The target in test [8] is T2, human PD-L1-HIS tagged recombinant …. Nature of the test: SPR, IgG on Protein A, PD-L1-HIS analyte. The procedure: The assay was run with Biacore T200 control software version 2.0. For each cycle, 1 μg/mL of anti-hPD-L1-IgG was captured for 60 seconds at flow rate of 10 μl/min on flow cell 2 in 1×HBSP buffer on Protein A sensor chip. […] The flow cells were then regenerated with Glycine pH 2 for 60 seconds at flow rate of 30 μl/min. […] The specific binding response unit was derived from subtraction of binding to reference flow cell 1 from antibody captured flow cell 2.
Background: Surface plasmon resonance follows binding to a sensor surface in real time, without labels.

For test [9] the target is unchanged. Nature of the test: SPR, Protein A capture, PD-L1-HIS analyte.
Test [10] addresses T3, full-length human PD-L1 on K562 cells (human, UniProt Q9NZQ7 19-290).
T3 construct: also called PD-L1/K562; cell surface human PD-L1
Briefly: FACS, PD-L1/K562 cells, anti-hFc Alexa Fluor 647. As for the experimental part: Cells were spun down at 1200 rpm for 5 minutes at 4° C. to remove primary antibodies. Cells were then washed once with 200 μL of full medium per well. […] Samples were spun down at 1200 rpm for 5 minutes at 4° C. and washed twice with 200 μL of 1×PBS per well. Reconstituted samples in 200 μL of 1×PBS and read on Attune NxT cytometer.
(In general: Flow cytometry measures light scatter and fluorescence of single cells or particles in a stream.)

For test [11], the target named is T4, biotinylated PD-L1 (Homo sapiens (Human), UniProt Q9NZQ7 19-238, biotinylated; site not stated). Briefly: ELISA, anti-human Fc capture, biotinylated PD-L1. The procedure: A 384 well plate was immobilized with anti-human Fc at final concentration of 2 μg/mL in 1×PBS in total volume of 25 μL per well. The plate was incubated overnight at 4° C. followed by blocking with 80 μL of superblock per well for 1 hour. […] In between each step, the plate was washed 3 times with 1×PBST in a plate washer. […] The plate was read at OD450 nm Biotek plate reader and the binding correlation was plotted with Prism 8.1 software.

Test [12] deals with T4, biotinylated PD-L1. Nature of the test: ELISA as described in Example 7 (value equals Table 17).
Test [13] deals with T5, recombinant His-tagged human IL-2Rα (human, UniProt P01589 22-213, limits assumed).
T5 construct: also called IL-2Rα-HIS; CD25
T5 sequence (looked up): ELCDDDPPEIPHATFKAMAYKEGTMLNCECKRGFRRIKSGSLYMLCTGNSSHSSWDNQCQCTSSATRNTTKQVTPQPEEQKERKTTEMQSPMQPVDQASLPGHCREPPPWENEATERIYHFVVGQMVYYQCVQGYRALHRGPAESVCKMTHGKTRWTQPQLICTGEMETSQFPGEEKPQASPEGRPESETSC
Briefly: ELISA, coated His-tagged human IL-2Rα, OD 450 nm. As for the experimental part: (§2) For monovalent IL-2 Fc-fusion proteins, recombinant His-tagged human IL-2Rα and IL-2Rβ were added in 25 μL of 1×PBS to wells of 384-well plate and incubated overnight at 4° C. to coat the plates. Plates were washed three times with 0.05% Tween20/1×PBS. Plates were blocked with 100 μL of SuperBlock for 1 hr at RT and then washed 3 times with 0.05% Tween20/1×PBS. IL-2 mutants were diluted in 0.05% Tween 20/1×PBS from 1000 nM to 0 nM and added to plates for 2 hrs at room temperature. Plates were then washed 6 times with 0.05% Tween20/1×PBS. Anti-HisTag-HRP was diluted 1:5000 in 0.05% Tween20/1×PBS and added to plates for 1 hr at RT. Plates were then washed 6 times with 0.05% Tween 20/1×PBS, and TMB was added to develop blue color. Reactions were stopped with 2N […] and light absorbance at 450 nm was read on a BioTek plate reader. Absorbance versus IL-2 concentration is graphed for human IL-2Rα and IL-2Rβ.

Test [14] concerns the target T6, recombinant His-tagged human IL-2Rβ (human, UniProt P14784 27-240, limits assumed).
T6 construct: also called IL-2Rβ-HIS; IL-15Rβ-HIS
T6 sequence (looked up): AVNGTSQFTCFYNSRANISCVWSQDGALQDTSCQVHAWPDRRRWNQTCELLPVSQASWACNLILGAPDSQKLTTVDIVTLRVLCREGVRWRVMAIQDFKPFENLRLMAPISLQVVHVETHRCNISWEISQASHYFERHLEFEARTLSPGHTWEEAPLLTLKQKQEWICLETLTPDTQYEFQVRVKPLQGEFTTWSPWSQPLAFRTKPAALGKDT
Briefly: ELISA, coated His-tagged human IL-2Rβ, OD 450 nm. As for the experimental part:
as §2

Read-outs that look alike come from different tables or passages of the source.

B1: anti-PD-L1 IgG1 antibody EP205/EP206 (2019EP69-F03) (antibody, V domains shown)
VH: QVQLVQSGAEVKKPGSSVKVSCKASGGTFSSYAISWVRQAPGQGLEWMGGIIPIFGTANYAQKFQGRVTITADESTSTAYMELSSLRSEDTAVYYCARDKWYGSAWRGDYWGQGTLVTVSS
VL: QSVLTQPPSASGTPGQRVTISCSGSYSNIGSNFVNWYQQLPGTAPKLLIHFNNQRPSGVPDRFSGSRSGTSASLAISGLQSEDEADYFCSTWDDSLKGPIFGGGTKLTVLG
notes: also called EP206/EP205
In the case of B1, the “Jurkat Reporter assay EC50” value in test [1] was found to be 0.55 nM. In addition, the “NFAT reporter EC50” value in test [2] and in test [3] was 0.549 nM throughout. For the same molecule, the IC50 in [4], in test [5] and in test [6] was 128 nM in each case. The EC50 came out at 0.164 nM in test [7], 0.00668 nM in [10], 0.26 nM with biotinylated PD-L1 [11] and 0.164 nM in the test with biotinylated PD-L1 [12]. The Kd in test [8] and in [9] was 0.363 nM in each case. Moreover, in test [9], the koff amounted to 0.000347 s⁻¹. For the same molecule, the kon in test [9] turned out to be 956000 M⁻¹ s⁻¹. For the same molecule, the binding result in test [13] and in test [14] was “no binding (tested: LOG(IL-2(nM)) about 1.8 (about 70 nM))” in each case.
